The assay addresses T1, cohesin tetramer complex (Smc1-Smc3-Scc1-Scc3) (S. cerevisiae (budding yeast), UniProt P32908 1-1225; P47037 1-1230; Q12158 1-566; P40541 1-1150).
T1 construct: Smc1, cohesin subunit, budding yeast; Smc3, cohesin subunit, budding yeast; Scc1, cohesin subunit, budding yeast; Scc3, cohesin subunit, budding yeast; also called cohesin complex; source: purified as previously described (Minamino et al. 2018): IgG agarose, 3C protease cleavage; copies: + + +
In words: SEC; Superose 6 Increase 3.2/300; 25 mM HEPES-KOH pH 7.6, 100 mM sodium acetate, 0.5 mM TCEP, 2 mM EDTA; proteins at the same molarity incubated together or separately at 30 °C for 5 min; fractions analysed by immunoblotting. As to conditions: both partners purified. A general note: In gel filtration, larger molecules generally elute earlier.

T1 sequence (P32908 whole entry, chain 1 of 4): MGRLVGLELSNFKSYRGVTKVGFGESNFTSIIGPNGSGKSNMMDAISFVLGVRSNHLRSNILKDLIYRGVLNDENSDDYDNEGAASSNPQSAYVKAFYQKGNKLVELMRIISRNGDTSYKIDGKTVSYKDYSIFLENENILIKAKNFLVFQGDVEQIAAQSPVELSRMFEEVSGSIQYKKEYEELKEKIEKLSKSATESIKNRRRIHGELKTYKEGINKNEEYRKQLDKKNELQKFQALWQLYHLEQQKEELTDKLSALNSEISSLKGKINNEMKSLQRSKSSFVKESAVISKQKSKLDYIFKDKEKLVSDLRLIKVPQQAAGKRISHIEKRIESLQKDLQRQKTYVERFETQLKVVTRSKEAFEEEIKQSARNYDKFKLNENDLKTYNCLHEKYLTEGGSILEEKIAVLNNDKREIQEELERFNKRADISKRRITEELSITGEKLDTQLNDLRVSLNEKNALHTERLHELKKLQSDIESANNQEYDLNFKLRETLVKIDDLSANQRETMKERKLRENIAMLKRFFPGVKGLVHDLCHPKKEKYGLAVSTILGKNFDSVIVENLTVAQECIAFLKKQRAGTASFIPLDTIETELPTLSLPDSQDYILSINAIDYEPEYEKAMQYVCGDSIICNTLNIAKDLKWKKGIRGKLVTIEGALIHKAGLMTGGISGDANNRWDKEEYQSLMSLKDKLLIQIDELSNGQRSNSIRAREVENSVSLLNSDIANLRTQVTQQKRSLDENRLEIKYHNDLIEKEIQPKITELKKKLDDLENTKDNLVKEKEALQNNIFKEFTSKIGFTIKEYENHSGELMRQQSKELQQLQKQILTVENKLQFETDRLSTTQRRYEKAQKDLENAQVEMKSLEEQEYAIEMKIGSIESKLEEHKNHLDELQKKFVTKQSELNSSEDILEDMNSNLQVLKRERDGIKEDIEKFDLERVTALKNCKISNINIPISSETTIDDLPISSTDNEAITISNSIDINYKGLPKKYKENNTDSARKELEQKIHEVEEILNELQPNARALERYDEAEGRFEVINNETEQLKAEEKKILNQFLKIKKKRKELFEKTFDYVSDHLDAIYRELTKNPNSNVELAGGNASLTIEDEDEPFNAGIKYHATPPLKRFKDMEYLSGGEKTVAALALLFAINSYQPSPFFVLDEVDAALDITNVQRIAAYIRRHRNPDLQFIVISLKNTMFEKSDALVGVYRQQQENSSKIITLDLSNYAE
T1 sequence (P47037 whole entry, chain 2 of 4): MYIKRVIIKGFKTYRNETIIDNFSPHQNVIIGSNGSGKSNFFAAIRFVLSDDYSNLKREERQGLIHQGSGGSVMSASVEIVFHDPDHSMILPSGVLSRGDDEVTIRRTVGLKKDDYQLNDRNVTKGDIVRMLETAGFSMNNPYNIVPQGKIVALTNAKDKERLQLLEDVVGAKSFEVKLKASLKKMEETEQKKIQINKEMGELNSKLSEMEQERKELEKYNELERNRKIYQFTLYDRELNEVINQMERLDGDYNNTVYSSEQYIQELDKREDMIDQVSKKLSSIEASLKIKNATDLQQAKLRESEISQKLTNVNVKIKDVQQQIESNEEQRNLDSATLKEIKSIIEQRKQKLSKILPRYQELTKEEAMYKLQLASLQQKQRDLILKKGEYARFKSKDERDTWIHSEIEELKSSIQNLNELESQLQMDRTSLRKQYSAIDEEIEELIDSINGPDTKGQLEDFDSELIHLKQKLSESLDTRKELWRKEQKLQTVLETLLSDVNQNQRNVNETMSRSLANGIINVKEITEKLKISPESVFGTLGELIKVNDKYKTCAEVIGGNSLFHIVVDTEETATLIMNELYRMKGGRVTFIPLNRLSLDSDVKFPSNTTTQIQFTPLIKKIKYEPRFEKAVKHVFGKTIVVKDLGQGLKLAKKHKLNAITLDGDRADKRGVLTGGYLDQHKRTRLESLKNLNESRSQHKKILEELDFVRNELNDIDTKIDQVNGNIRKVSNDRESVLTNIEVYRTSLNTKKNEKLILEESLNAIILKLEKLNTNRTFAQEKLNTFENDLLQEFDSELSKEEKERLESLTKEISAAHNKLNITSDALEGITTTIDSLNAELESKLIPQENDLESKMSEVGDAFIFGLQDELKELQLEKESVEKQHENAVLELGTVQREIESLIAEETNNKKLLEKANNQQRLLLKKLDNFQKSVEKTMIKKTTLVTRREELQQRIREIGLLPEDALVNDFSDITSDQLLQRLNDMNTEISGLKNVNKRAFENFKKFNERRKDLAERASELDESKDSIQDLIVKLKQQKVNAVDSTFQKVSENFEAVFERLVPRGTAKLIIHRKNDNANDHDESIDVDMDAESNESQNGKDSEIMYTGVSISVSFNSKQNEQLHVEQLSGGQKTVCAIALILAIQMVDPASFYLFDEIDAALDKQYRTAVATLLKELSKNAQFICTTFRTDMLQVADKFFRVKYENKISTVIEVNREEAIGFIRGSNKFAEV
T1 sequence (Q12158 whole entry, chain 3 of 4): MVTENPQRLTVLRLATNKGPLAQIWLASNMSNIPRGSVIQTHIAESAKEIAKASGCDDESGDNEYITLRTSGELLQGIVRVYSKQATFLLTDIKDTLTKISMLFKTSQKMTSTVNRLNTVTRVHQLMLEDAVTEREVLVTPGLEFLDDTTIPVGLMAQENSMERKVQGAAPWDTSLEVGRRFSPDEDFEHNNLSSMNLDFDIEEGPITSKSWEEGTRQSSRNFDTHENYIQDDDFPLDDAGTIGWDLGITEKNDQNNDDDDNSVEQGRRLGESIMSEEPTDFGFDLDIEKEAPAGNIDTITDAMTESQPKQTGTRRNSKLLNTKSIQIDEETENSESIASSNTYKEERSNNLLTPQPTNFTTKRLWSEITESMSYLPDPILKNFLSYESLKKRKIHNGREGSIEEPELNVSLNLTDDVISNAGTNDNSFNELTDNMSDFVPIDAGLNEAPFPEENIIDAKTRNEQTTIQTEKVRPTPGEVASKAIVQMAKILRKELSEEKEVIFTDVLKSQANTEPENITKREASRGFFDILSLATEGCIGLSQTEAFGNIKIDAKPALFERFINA
T1 sequence (P40541 whole entry, chain 4 of 4): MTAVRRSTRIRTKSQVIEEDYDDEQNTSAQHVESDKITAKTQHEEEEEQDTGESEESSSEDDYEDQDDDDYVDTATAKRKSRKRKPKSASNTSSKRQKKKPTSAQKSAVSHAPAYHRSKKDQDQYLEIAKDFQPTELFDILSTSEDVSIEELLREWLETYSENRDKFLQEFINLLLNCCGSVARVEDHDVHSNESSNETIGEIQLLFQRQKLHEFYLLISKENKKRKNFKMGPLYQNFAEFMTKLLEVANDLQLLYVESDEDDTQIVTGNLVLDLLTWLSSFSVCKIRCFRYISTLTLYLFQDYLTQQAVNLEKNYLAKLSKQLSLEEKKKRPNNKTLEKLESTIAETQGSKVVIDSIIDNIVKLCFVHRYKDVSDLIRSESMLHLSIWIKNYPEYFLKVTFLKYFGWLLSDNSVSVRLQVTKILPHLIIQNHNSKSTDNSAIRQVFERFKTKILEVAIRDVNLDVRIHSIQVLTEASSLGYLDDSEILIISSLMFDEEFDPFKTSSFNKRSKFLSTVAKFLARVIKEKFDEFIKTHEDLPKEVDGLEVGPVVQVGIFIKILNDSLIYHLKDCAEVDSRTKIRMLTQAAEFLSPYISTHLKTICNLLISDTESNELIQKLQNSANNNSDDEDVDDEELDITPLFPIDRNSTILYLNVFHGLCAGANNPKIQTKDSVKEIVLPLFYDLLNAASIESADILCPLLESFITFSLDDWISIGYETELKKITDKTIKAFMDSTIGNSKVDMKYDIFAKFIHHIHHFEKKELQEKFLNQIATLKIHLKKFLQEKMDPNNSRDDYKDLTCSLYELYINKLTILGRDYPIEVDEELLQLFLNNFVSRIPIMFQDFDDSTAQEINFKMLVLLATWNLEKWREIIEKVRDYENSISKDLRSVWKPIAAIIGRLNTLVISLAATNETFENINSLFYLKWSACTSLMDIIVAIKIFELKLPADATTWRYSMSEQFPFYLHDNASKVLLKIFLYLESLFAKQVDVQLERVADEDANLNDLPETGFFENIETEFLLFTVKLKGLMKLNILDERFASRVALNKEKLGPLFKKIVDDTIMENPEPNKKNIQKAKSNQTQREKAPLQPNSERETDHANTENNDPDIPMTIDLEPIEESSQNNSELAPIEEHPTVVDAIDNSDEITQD

B1: Mrc1 (natural protein, S. cerevisiae (budding yeast), UniProt P25588 1-1096, looked up)
chain: MDDALHALSSLTAKKRTTTYKKVAVPILDENDNTNGNGPNDIDNPPELTGNGFLFANATLNRVKNRLEGKKAPEQNHNNGKDRSENSLPTQLISNLYDGGEELEKSEVKDNSYSEKNVSSSFTQTQRIPVSIQQDKVFNVPIHSVNDGKPTQLIKEDGLVNETSQALKTPLTTGRPGATQRIDSSGATSQTQPIKSIEPQSQIITTSSNHSNALSPKIPIIPTELIGTSPLFQSIQNRGPDTQMDVPPQTAHDEDKTQAIGIPQATHQEQKTQIDTVAQTLQDEVPHTLKIREIQSELASEDSKREKARNVEYKKPQKPIPTKKFFSKESFLADFDDSSSNEDDDIKLENAHPKPVQNDDELHENKSVELNLTDETRINEKRVPLLSSYANNLKREIDSSKCITLDLDSDSDEYGDDDMDSIKLSKDESVLPISQLSKATILNLKARLSKQNQKLSQRPNKSKDPKVDHNVLLNTLRKASRKQILDHQKEVIETKGLKLEDMAKEKEIVENLLEQEILRNKRIRQKEKRREKLEENDFQLNAHDSGSDSGSESSGFALSGNEIADYESSGSENDNRRESDSEKEDDEIILKQKKSHHVKHIINESDSDTEVEAKPKEKADESLPKRIAINLGHYGDNIGEDTDKFQETNVLDTQNIEEVMAERNTIENEVKDDVYVNEEADEAIRRQLIDKEKLQLKQKEKEHEAKIKELKKRGVTNFFEMEAEESEDEWHGIGGADGEGSDDYDSDLEKMIDDYSKNNFNPHEIREMLAAENKEMDIKMINKILYDIKNGGFRNKRAKNSLELELSDDDEDDVLQQYRLKRRELMRKRRLEIGDDAKLVKNPKSSAFFESMVEDIIEYKNPFGAEEEYNLDITSTATDLDTQDNSINVGDNTGNNEQKPVDQKNKKVIISEDFVQKSLSFLKSNNYEDFETDKELSRIQHGNDEAIEDLYTLKQNSSIKSFTNSQTDSTTSKTVNTIIDLEKRPEDEDEVENGDTSLVGVFKHPSIIKSFASRTDINDKFKEGNKTVKILKSYKTVGSSKASITYMGKTRKLIAPKRKTEGSHRYHHDHHNKKMKMKTKTKSNKLFESGQDSFDN
notes: Mrc1, budding yeast; also called Flag-tagged Mrc1; source: purified as previously described (Yeeles et al. 2017)
Regarding B1, the binding result is “binds”.
